This is an account of results in patent US20190233493A1 (Sanofi, published 2019).

*1 amine or outer side, *2 acyl side, *3 side chain or, on linkers, in order; H or OH if unused. Primed or numbered codes have the meaning given here. Side-chain parts run from the residue outwards. [ ]: non-standard residue; d: D form. The star is where a group is joined. TTDS″ = 4-[3-[2-[2-(3-aminopropoxy)ethoxy]ethoxy]propylamino]-4-oxo-butanoyl; TtdDga = O=C(COCC(=O)[*:2])NCCCOCCOCCOCCCN[*:1]; Docosanoyl = CCCCCCCCCCCCCCCCCCCCCC(=O)*; Arachidoyl = CCCCCCCCCCCCCCCCCCCC(=O)*; Heptadecanoyl = CCCCCCCCCCCCCCCCC(=O)*; γGlu = O=C(O)[C@H](CCC(=O)[*:2])N[*:1]; Pentadecanoyl = CCCCCCCCCCCCCCC(=O)*; Stearoyl = CCCCCCCCCCCCCCCCCC(=O)*; Palmitoyl = CCCCCCCCCCCCCCCC(=O)*; Myristoyl = CCCCCCCCCCCCCC(=O)*; αMeK = C[C@](N)(CCCCN)C(=O)O; Lauroyl = CCCCCCCCCCCC(=O)*; Nle = CCCC[C@H](N)C(=O)O; PEG2′ = PEG2 spacer unit; Aib = CC(C)(N)C(=O)O

The chains are these.
T1: RXFP1 receptor (UniProt Q9HBX9 1-757, limits assumed)
T1 sequence (looked up): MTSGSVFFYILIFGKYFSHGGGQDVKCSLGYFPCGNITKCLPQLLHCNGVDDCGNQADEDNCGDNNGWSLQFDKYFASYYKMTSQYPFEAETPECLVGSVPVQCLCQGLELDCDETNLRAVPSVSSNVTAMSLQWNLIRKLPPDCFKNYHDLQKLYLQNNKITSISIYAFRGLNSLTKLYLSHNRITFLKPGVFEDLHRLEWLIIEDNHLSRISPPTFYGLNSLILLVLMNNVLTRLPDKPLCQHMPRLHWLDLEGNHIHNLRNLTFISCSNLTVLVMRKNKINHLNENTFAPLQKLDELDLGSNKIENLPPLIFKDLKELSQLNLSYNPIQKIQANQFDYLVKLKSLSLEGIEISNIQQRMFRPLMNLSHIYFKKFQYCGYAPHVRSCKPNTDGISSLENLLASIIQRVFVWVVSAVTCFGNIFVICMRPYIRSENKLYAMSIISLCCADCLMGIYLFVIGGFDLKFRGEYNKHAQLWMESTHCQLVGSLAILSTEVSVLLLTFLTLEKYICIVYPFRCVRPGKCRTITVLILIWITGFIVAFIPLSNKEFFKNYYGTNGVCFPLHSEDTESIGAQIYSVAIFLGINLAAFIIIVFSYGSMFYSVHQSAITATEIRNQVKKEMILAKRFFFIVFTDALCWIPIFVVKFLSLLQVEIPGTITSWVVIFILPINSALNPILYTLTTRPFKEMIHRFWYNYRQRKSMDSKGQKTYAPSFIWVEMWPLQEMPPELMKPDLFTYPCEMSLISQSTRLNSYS

B1: peptide of SEQ ID NO: 176 (peptide)
peptide: Ac-LEGREKVRAK(Ac)I[Aib][Aib]EGQSTWS[Aib]RKK(Ac)[TtdDga]K([γGlu-γGlu-γGlu-Palmitoyl])-NH2
SMILES: CCCCCCCCCCCCCCCC(=O)N[C@@H](CCC(=O)N[C@@H](CCC(=O)N[C@@H](CCC(=O)NCCCC[C@H](NC(=O)COCC(=O)NCCCOCCOCCOCCCNC(=O)[C@H](CCCCNC(C)=O)NC(=O)[C@H](CCCCN)NC(=O)[C@H](CCCNC(=N)N)NC(=O)C(C)(C)NC(=O)[C@H](CO)NC(=O)[C@H](Cc1c[nH]c2ccccc12)NC(=O)[C@@H](NC(=O)[C@H](CO)NC(=O)[C@H](CCC(N)=O)NC(=O)CNC(=O)[C@H](CCC(=O)O)NC(=O)C(C)(C)NC(=O)C(C)(C)NC(=O)[C@@H](NC(=O)[C@H](CCCCNC(C)=O)NC(=O)[C@H](C)NC(=O)[C@H](CCCNC(=N)N)NC(=O)[C@@H](NC(=O)[C@H](CCCCN)NC(=O)[C@H](CCC(=O)O)NC(=O)[C@H](CCCNC(=N)N)NC(=O)CNC(=O)[C@H](CCC(=O)O)NC(=O)[C@H](CC(C)C)NC(C)=O)C(C)C)[C@@H](C)CC)[C@@H](C)O)C(N)=O)C(=O)O)C(=O)O)C(=O)O
B2: peptide of SEQ ID NO: 168 (peptide)
peptide: Ac-LEGREKVRAK(Ac)I[Aib][Aib]EG[Nle]STFSXRAK(Ac)[PEG2′][PEG2′][PEG2′][PEG2′][γGlu][γGlu]K([γGlu-γGlu-Pentadecanoyl])-NH2
modifications: not fully specified (some residues); printed as Ac-L-E-G-R-E-K-V-R-A-K(Ac)-I-Aib-Aib-E-G-Nle-S-T-F-S-Mly-R-A-K(Ac)-PEG2-PEG2-PEG2-PEG2-gE-gE-K(gE-gE-Penta)-NH2
B3: peptide of SEQ ID NO: 18 (peptide)
peptide: Ac-LEGREKVRAK(Ac)I[Aib][Aib]EG[Nle]STWS[Aib]RKK(Ac)[TtdDga]K([γGlu-γGlu-γGlu-Stearoyl])-NH2
SMILES: CCCCCCCCCCCCCCCCCC(=O)N[C@@H](CCC(=O)N[C@@H](CCC(=O)N[C@@H](CCC(=O)NCCCC[C@H](NC(=O)COCC(=O)NCCCOCCOCCOCCCNC(=O)[C@H](CCCCNC(C)=O)NC(=O)[C@H](CCCCN)NC(=O)[C@H](CCCNC(=N)N)NC(=O)C(C)(C)NC(=O)[C@H](CO)NC(=O)[C@H](Cc1c[nH]c2ccccc12)NC(=O)[C@@H](NC(=O)[C@H](CO)NC(=O)[C@H](CCCC)NC(=O)CNC(=O)[C@H](CCC(=O)O)NC(=O)C(C)(C)NC(=O)C(C)(C)NC(=O)[C@@H](NC(=O)[C@H](CCCCNC(C)=O)NC(=O)[C@H](C)NC(=O)[C@H](CCCNC(=N)N)NC(=O)[C@@H](NC(=O)[C@H](CCCCN)NC(=O)[C@H](CCC(=O)O)NC(=O)[C@H](CCCNC(=N)N)NC(=O)CNC(=O)[C@H](CCC(=O)O)NC(=O)[C@H](CC(C)C)NC(C)=O)C(C)C)[C@@H](C)CC)[C@@H](C)O)C(N)=O)C(=O)O)C(=O)O)C(=O)O
B4: peptide of SEQ ID NO: 175 (peptide)
peptide: Ac-LEGREKVRAK(Ac)I[Aib][Aib]EG[Nle]STWS[Aib]RKK(Ac)[TtdDga]K([γGlu-γGlu-γGlu-Palmitoyl])-NH2
SMILES: CCCCCCCCCCCCCCCC(=O)N[C@@H](CCC(=O)N[C@@H](CCC(=O)N[C@@H](CCC(=O)NCCCC[C@H](NC(=O)COCC(=O)NCCCOCCOCCOCCCNC(=O)[C@H](CCCCNC(C)=O)NC(=O)[C@H](CCCCN)NC(=O)[C@H](CCCNC(=N)N)NC(=O)C(C)(C)NC(=O)[C@H](CO)NC(=O)[C@H](Cc1c[nH]c2ccccc12)NC(=O)[C@@H](NC(=O)[C@H](CO)NC(=O)[C@H](CCCC)NC(=O)CNC(=O)[C@H](CCC(=O)O)NC(=O)C(C)(C)NC(=O)C(C)(C)NC(=O)[C@@H](NC(=O)[C@H](CCCCNC(C)=O)NC(=O)[C@H](C)NC(=O)[C@H](CCCNC(=N)N)NC(=O)[C@@H](NC(=O)[C@H](CCCCN)NC(=O)[C@H](CCC(=O)O)NC(=O)[C@H](CCCNC(=N)N)NC(=O)CNC(=O)[C@H](CCC(=O)O)NC(=O)[C@H](CC(C)C)NC(C)=O)C(C)C)[C@@H](C)CC)[C@@H](C)O)C(N)=O)C(=O)O)C(=O)O)C(=O)O

The experiment deals with T1, RXFP1 receptor. The experiment can be described thus: cell-based or functional assay.
Take Ac-LEGREKVRAK(Ac)I[Aib][Aib]EG[Nle]STWS[Aib]RKK(Ac)K([PEG2′-PEG2′-γGlu-γGlu-PEG2′-γGlu-Palmitoyl])-NH2 [peptide of SEQ ID NO: 165]: the “EC50 (nM), OVCAR 5 cells (cAMP)” value was determined as 0.38 nM and the “EMax, OVCAR 5 cells (cAMP)” value worked out at 105%. With B1, the “EC50 (nM), OVCAR 5 cells (cAMP)” value worked out at 3 nM and the “EMax, OVCAR 5 cells (cAMP)” value amounted to 90%. Regarding Ac-LEGREKVRAK(Ac)I[Aib][Aib]EGQSTFS[αMeK]RAK(Ac)[PEG2′][PEG2′][PEG2′][PEG2′]K([γGlu-γGlu-γGlu-γGlu-Lauroyl])-NH2 [peptide of SEQ ID NO: 161], the “EC50 (nM), OVCAR 5 cells (cAMP)” value stood at 12.1 nM and the “EMax, OVCAR 5 cells (cAMP)” value is 94%. Consider Ac-LEGREKVRAQI[Aib][Aib]EG[Nle]STWS[Aib]RKKK([PEG2′-PEG2′-PEG2′-γGlu-γGlu-γGlu-Stearoyl])-NH2 [peptide of SEQ ID NO: 174], for which the “EMax, OVCAR 5 cells (cAMP)” value was 88%. Consider Ac-LEGREKVRAK(Ac)I[Aib][Aib]EG[Nle]STFS[αMeK]RAK(Ac)[PEG2′][PEG2′][PEG2′][PEG2′]K([γGlu-γGlu-γGlu-γGlu-Pentadecanoyl])-NH2 [peptide of SEQ ID NO: 167], for which the “EC50 (nM), OVCAR 5 cells (cAMP)” value worked out at 0.05 nM and the “EMax, OVCAR 5 cells (cAMP)” value is 93%.

For the molecule Ac-LEGREKVRAK(Ac)I[Aib][Aib]EG[Nle]STWS[Aib]RKK(Ac)K([PEG2′-PEG2′-PEG2′-γGlu-γGlu-γGlu-Docosanoyl])-NH2 [peptide of SEQ ID NO: 173], the “EC50 (nM), OVCAR 5 cells (cAMP)” value stood at 0.19 nM and the “EMax, OVCAR 5 cells (cAMP)” value was determined as 85%. On the same counts, the results for B2 are 0.06 nM and 91%. On the same counts, the results for B3 are 0.41 nM and 83%. On the same counts, the results for Ac-LEGREKVRAK(Ac)I[Aib][Aib]EG[Nle]STWS[αMeK]RKK(Ac)[PEG2′][PEG2′][PEG2′]K([γGlu-γGlu-γGlu-γGlu-Palmitoyl])-NH2 [peptide of SEQ ID NO: 17] are 0.17 nM and 95%. Take Ac-LEGREKVRAK(Ac)I[Aib][Aib]EG[Nle]STWS[Aib]RKK(Ac)K([PEG2′-PEG2′-PEG2′-γGlu-γGlu-γGlu-Heptadecanoyl])-NH2 [peptide of SEQ ID NO: 164]: the “EC50 (nM), OVCAR 5 cells (cAMP)” value worked out at 0.79 nM and the “EMax, OVCAR 5 cells (cAMP)” value came out at 93%. For B4, in that order: 2.21 nM and 87%.

As to Ac-LEGREKVRAK(Ac)I[Aib][Aib]EGQSTFS[αMeK]RAK(Ac)[PEG2′][PEG2′][PEG2′][PEG2′]K([γGlu-γGlu-γGlu-γGlu-Palmitoyl])-NH2 [peptide of SEQ ID NO: 170], the “EC50 (nM), OVCAR 5 cells (cAMP)” value is 0.01 nM and the “EMax, OVCAR 5 cells (cAMP)” value is 87%. On the same counts, the results for Ac-LEGREKVRAK(Ac)I[Aib][Aib]EG[Nle]STWS[Aib]RKK(Ac)K([PEG2′-PEG2′-PEG2′-γGlu-γGlu-γGlu-Arachidoyl])-NH2 [peptide of SEQ ID NO: 171] are 0.18 nM and 83%.

For Ac-LEGREKVRAK(Ac)I[Aib][Aib]EG[Nle]STWS[Aib]RKK(Ac)K([PEG2′-PEG2′-PEG2′-γGlu-γGlu-γGlu-Pentadecanoyl])-NH2 [peptide of SEQ ID NO: 163], the “EC50 (nM), OVCAR 5 cells (cAMP)” value amounted to 5.3 nM and the “EMax, OVCAR 5 cells (cAMP)” value stood at 87%. For Ac-LEGREKVRAK(Ac)I[Aib][Aib]EG[Nle]STWS[Aib]RKK(Ac)K([TTDS″-TTDS″-γGlu-γGlu-γGlu-Palmitoyl])-NH2 [peptide of SEQ ID NO: 166], in that order: 0.26 nM and 92%. On the same counts, the results for Ac-LEGREKVRAK(Ac)I[Aib][Aib]EG[Nle]STFS[αMeK]RAK(Ac)[PEG2′][PEG2′][PEG2′][PEG2′]K([γGlu-γGlu-γGlu-γGlu-Myristoyl])-NH2 [peptide of SEQ ID NO: 172] are 0.56 nM and 95%.
